# Where no end group is shown, it is not given here. The star is where a group is joined. αGalNAc = CC(=O)N[C@@H]1[C@@H](O)[C@@H](O)[C@@H](CO)O[C@@H]1*; Galβ1‑3GalNAc = TF-antigen
# T1: SEQ ID NO: 346 glycopeptide with Tn-antigen at Thr4, Thr9 and Thr16
# T1 construct: also called T4^Tn/T9^Tn/T16^Tn
# T1 peptide: HGVT(αGalNAc)SAPDT(αGalNAc)RPAPGST(αGalNAc)APP
# T2: SEQ ID NO: 346 glycopeptide with TF-antigen at Thr9
# T2 construct: also called T9^TF
# T2 peptide: HGVTSAPDT(Galβ1‑3GalNAc)RPAPGSTAPP
# T3: SEQ ID NO: 346 glycopeptide with TF-antigen at Thr16
# T3 construct: also called T16^TF
# T3 peptide: HGVTSAPDTRPAPGST(Galβ1‑3GalNAc)APP
# T4: SEQ ID NO: 346 glycopeptide with TF-antigen at Thr4 and Thr9
# T4 construct: also called T4^TF/T9^TF
# T4 peptide: HGVT(Galβ1‑3GalNAc)SAPDT(Galβ1‑3GalNAc)RPAPGSTAPP
# T5: SEQ ID NO: 346 glycopeptide with TF-antigen at Thr4
# T5 construct: also called T4^TF
# T5 peptide: HGVT(Galβ1‑3GalNAc)SAPDTRPAPGSTAPP
# T6: SEQ ID NO: 346 glycopeptide with TF-antigen at Ser5 (not fully specified (residue 5))
# T6 construct: also called S5^TF
# T6 peptide: HGVTSAPDTRPAPGSTAPP
# T7: Synthetic peptide (GVTSAPDTRPAPGSTAPPAH)2
# T7 peptide: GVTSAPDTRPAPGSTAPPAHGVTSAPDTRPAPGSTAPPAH
# T8: Synthetic peptide HGVTSAPDTRPAPGSTAPP
# T8 construct: Unglycosylated; also called 346; MUC1 repeat
# T8 peptide: HGVTSAPDTRPAPGSTAPP
# B1: M7 (antibody, human IgG1, kappa, V domains shown)
# VH: EVQLVESGGGLVQPGGSLRLSCAASGFTVSSNYMSWVRQAPGKGLEWVSVIYSGGSTYYADSVKGRFTISRDNSKNTLYLQMNSLRAEDTAVYYCARGSTNTYYYDSSGHPWGQGTMVTVSS
# VL: DIVMTQSPLSLPATPGEPASISCRSSQSLLHSNGYTYLDWYLQKPGQSPQVLIYLASNRASGVPDRFSGSGSGTNFTLKISRVEAEDVGLFYCMQALQTPQTFGQGTKLEIKR
# notes: Human IgG
# Experiments:
# [1] = target: T1, SEQ ID NO: 346 glycopeptide with …; experiment: ELISA on coated glycopeptide, antibody 0.01 mg/ml, mean of 3
# Text: (§1) Selected antibodies from Table 1 were further characterized for binding to synthetic MUC1 glycopeptides that were synthesized with the GalNac or GaNac-Gal carbohydrates on various serines and threonines along the MUC1 tandem repeat. If placed within the specific epitope recognized by an antibody, the antibody would not bind that particular glycopeptide.
# [2] = target: T2, SEQ ID NO: 346 glycopeptide with …; experiment: as above
# Text: as §1
# [3] = target: T3, SEQ ID NO: 346 glycopeptide with …; experiment: as above
# Text: as §1
# [4] = target: T4, SEQ ID NO: 346 glycopeptide with …; experiment: as above
# Text: as §1
# [5] = target: T5, SEQ ID NO: 346 glycopeptide with …; experiment: as above
# Text: as §1
# [6] = target: T6, SEQ ID NO: 346 glycopeptide with …; experiment: as above
# Text: as §1
# [7] = target: T7, Synthetic peptide …; experiment: ELISA on coated peptide, antibody 0.01 mg/ml, mean of 3
# Text: as §1
# [8] = target: T8, Synthetic peptide HGVTSAPDTRPAPGSTAPP; experiment: as above
# Text: as §1
# [9] = target: T9, 100 aa-long synthetic MUC1 peptide (…)5; experiment: ELISA titration on coated 100-mer peptide, EC50 approximated
# T9 construct: also called 100-mer; vaccine 100-mer peptide
# Text: Heavy and light chains of antibodies reactive against MUC1 were generated from plasma of individuals vaccinated with a 100 aa-long synthetic MUC1 peptide (100-mer) representing the unglycosylated tumor associated MUC1 antigen (Kimura et al., 2013, Cancer Prev. Res. (Phila.), 6:18-26). Binding of monoclonal antibodies produced by combinatorial pairing of chains was characterized by ELISA using the vaccine 100-mer peptide consisting of the following sequence ([…])₅ (SEQ ID NO: 2). Briefly, 96-well high-binding ELISA plates were coated with 50 μl of the peptide diluted in carbonate buffer at 2 μg/ml. The wells were washed then blocked with 5% fat-free milk in phosphate-buffered saline (PBS). Antibodies were diluted in 5% milk in PBS with 0.1% TWEEN 20 (PBS-T) and then added to the peptide-coated, blocked wells and incubated at 37° C. for 2 hours, after which the wells were washed. Binding of antibody was probed with an anti-human IgG goat antibody conjugated to horseradish peroxidase (HRP), and signal was detected with 3,3′,5,5′-tetramethylbenzidine (TMB) substrate, which was neutralized with an acid, then the 450 nm absorbance was read. […] Additionally, the EC₅₀ of each antibody was approximated by ELISA titration (Table 1).
binder,measurement,setting,value
B1,ELISA absorbance at 450 nm,[1],0.1 absorbance
same,ELISA absorbance at 450 nm,[2],0.1 absorbance
same,ELISA absorbance at 450 nm,[3],0.1 absorbance
same,ELISA absorbance at 450 nm,[4],0.1 absorbance
same,ELISA absorbance at 450 nm,[5],0.1 absorbance
same,ELISA absorbance at 450 nm,[6],0.1 absorbance
same,ELISA absorbance at 450 nm,[7],3.5 absorbance
same,ELISA absorbance at 450 nm,[8],0.1 absorbance
same,EC50,[9],0.011 µg/mL

# Reference: patent US20160145343A1 (UNIVERSITY OF PITTSBURGH OF THE COMMONWEALTH SYSTEM OF …, published 2016)
